# Laboratory results published in patent publication US20200109446A1.
# Assays:
# [1] = target: Cascade lacking the Cse1 subunit (T. fusca); assay: EMSA, target DNA with a changed PAM and a mismatch at position +1
# [2] = target: Cascade lacking the Cse1 subunit (T. fusca); assay: EMSA, target DNA with a mismatch to the crRNA at position +1
# [3] = test system: T. fusca Type I-E CRISPR-Cas (Cascade) effector complex
percent of Cascade complexes converted to the faster-migrating species (Cascade lacking Cse1) [1] [%],percent of Cascade complexes converted to the faster-migrating species (Cascade lacking Cse1) [2] [%],Substance,Cas3 nuclease activity [3]
100,80,free Cse1 (T. fusca),
,,T. fusca Cas3,impaired Cas3 recruitment also reduced Cas3 nuclease activity when ATP and Co^+2 were added to the reaction mixtures
